Assay: yeast display, Sf9 membrane polyspecificity reagent, FACS + sequencing; frameworks hold sequencing errors
In short: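 After 36–48 hours of galactose induction, yeast (Saccharomyces cerevisiae BJ5465) displaying a synthetic nanobody library were stained at 4 °C for 1 hour with 10% biotinylated, detergent-solubilized Sf9 membrane reagent. Streptavidin microbeads enriched the stained cells before FACS sorting into low and high (top ~1%) gates on anti-HA and streptavidin fluorescence. Each clone's polyreactivity label reflects its gate of origin.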

Sequence | polyreactivity (PSR sort gate)
QVQLVESGGGLVQAGGSLRLICAASGRILKYNAMGWYRQAPGKERELVAAISYRGGSTYYADSVKGRFTISRDTAKYTVYLLMNSLKPEDTAVYYCNAGGGILNGPLFDYWGQGTQVTVSS | low polyreactivity
QVQLVESGGGLVQAGGSLRLSCAASGRTFYRYAMGWYRQAPGKERELVASISSGGSTDYADSVKGRFTISRDNAKNTVYLQMNSLKPEDTAVYYCNAEIVGFWTSYDYWGQGTQVTVSS | low polyreactivity
QVQRVESGLGLVQAGCSLRLTCAASGRIFDGYAMGWYRPARGKERELVATISSGGFTYYADSVKGSFTISRDNAKNTFYLQMNILKPEDTAVYYCAATPICSGGWGDYWGQGTQVTVSS | low polyreactivity
QVQLVESGGGLVQAGGSLRLSCAASGRIFRGYAMGWYRQAPGKEREFVAAITKNGGSTYYADSVKGRFTISRDNAKNTVYLQMHSLKPEDTAVYYCAVRAWDPYTGKSDYWGQGTQVTVSS | low polyreactivity
QVQLVESGGGLVQAGGSLRLSCAASGSICRRNDMGWYRQAPGKERELVAAISSNGGSTYYADSVKGRFTISRDNAKNTVYLQMNSLKPEDTAVYYCNALVRVRYSPRYGYDYWGQGTQVTVSS | high polyreactivity
QVQLVESGGGLVQAGGSLRLSCAASGRIFHYYAMGWYRQAPGKERELVAASTFRGGNTYADSVKGRFTISRDNAKNTVYLQMNSLKPEDTAVYYCADSRLSGYYSRYGYWGQGTQVTVSS | high polyreactivity
QVQLVESGGALVQAGGSLRLSCAASGSIFVSYAKGWSRPAPGKERELLATITTSTGSTYADSVKGRFTISRDNAKNTVYLQMNSLKPEDTAVYYCAARYQPWLKYDFDSWGQGTQVTVSS | low polyreactivity
QVQLVESGGGLVQAGGSLRLSCAASGSIFRWNAMGSYRQAPGKERELVAVINSSGGSTYYADSVKGRFTISRDNAKNTVYLQMNSLKPEDTAVYYCAAVIYKIIYGQYAYDYWGQGTQVTVSS | low polyreactivity
QVQLVESGGGLVQAGGSLRLICAASGRIFRQNAMGWYRQEPGKERELVASISSGGNTYYADSVKGRFTISRDNAKNTVYLEMNSLKPEDTAVYYCAAAKQRYYRWWTTPGYDYWGQGTQVTVSS | low polyreactivity
QDQLVESGGGLVQAGGSHRLSCAASGSTFLGNTMGWYRQAPRKERELVAAISSSGTSTYYADSVKGRFTISRDNAKNTVYLQMNSLKPEDTAVYYCAAVIRVWWGFGDKYDYWGQGTQVTVAS | high polyreactivity
QVQLVESGGGLVQAGGSLRLSCAASGSTFYKYAMGWYRQAPGKERELVASISRSGGSTSYADSVKGRFTISRDYAKNTVYLQMNSLKPEDTAVYYCAATWRQHPGSMGYWGQGTQVTVSS | high polyreactivity
QVQLVESGGGLVQAGGSLRLSCAASGSTLIRNVMGWYRQAPGKERELVAAINTRGTTTYYADSVKGRITISRDNAKNTVYLQMNSLKPEDTAVYYCAARTPHYSYGYWGQGTHVTVSS | high polyreactivity
QVQLVESGGGLVQAGGSLRLSCAASGRIFGLYAMGWYRQAPGKERELVAAISWSGGRTYYADSVKGRFTISRDNAKNTVYLQMNSLKPEDTAVYYCAARSYYRSQYGFDFWGQGTQVTVSS | high polyreactivity
QVQLVESGGGLVQAGGSLRLSCAASGLTFGRYAMGWYRQAPGKERELVAVINGSGGNTYYADSVKGRFTISRDNAKNTVYLQMNSLKPEDTAVYYCAARRTVQYTLYYYPDYNYWGQGTQVTVSS | low polyreactivity
QVQLVESGGGLVQAGGSLRLSCAASGNTIKGYAMGLYRQAPGKERELVAAISWSGSSTYYADSVKGRFTISRDNAKYSVYLHKNSVKPEDTAVYYCNRKYLGRYASVYGYGYWGQGTQVTVSS | high polyreactivity
QVQLVESGGGLVQAGGSLRLSCAASGSTLKYYAMGWYRQAPGKERELVARITRSSGSTYYADSVKGRFTISRDNAKNTVFLHMNSLKPEDTAVYYCNKVYKSYYCGCYDWGQGTQVTVLS | high polyreactivity

Sequence | polyreactivity (PSR sort gate)
QVQLVESGGGLVQAGGSLRLSCAASGSIFGSYAMGWYTQAPGKERELVAAITRAGSTNYADSVKGRFTISRDNAKNTVYLQINSLKPEDTAVFYCAVRPGFGRSLWYGYWGQGTQVTVSS | low polyreactivity
QVQLVESGGGLVQAGGSLRLSCAASGRTFGGNAMGWYRQAPGKERELVAVIRSTGGSTYYADSVKGRFTISRDNAKNTVYLQMNSLKPEDTAVYYCAKGRGRNFGYWGQGTQVTVSS | high polyreactivity
QVQLVESGGGLVQAGGSLRLSCAASGITFGIYAMGWDRQAPGKERELVAAISLSGGSTYYADSVKGRFTISRDNAKNTVYLQMNSVKPEDTAVYYCNARRNRYGEYYWGQGTQVTVSS | high polyreactivity
QVQLVESGGGLVQAGGSLRLSCAASGSIFTFYAMGWYRQAPGKERELVAAISKGGDRTYYADSVKGRFTISRDNAKNTVYLQMNSLIPEDTAVYYCARLVRPGRFGDGDYWGQGTQVTVSS | low polyreactivity
QVQLVESGGGLVQAGGSLRISCAASGITFNVNAMGWSRQAPGKERELVARITTSGGSTSYADSVKGRFTISRDNAKNTVYLQMNSLKPEDTAVYYCAADRARYYSEYDYWGQGTQVTVSS | low polyreactivity
QVQLVDSGGGLVQAGVSLRLSCAASGFTFVFYAMGWYRQAPGKERELVAAISGRGGSTYYADSVKGRFTISRDNAKNTVYLQMNSLKPEDTAVYYCNALYVYRSVANFDYWGQGTQVTVSS | high polyreactivity
QDQLVESVVGLDQAGVSLRLSSAASGRTFRKYAMGCSRQAHGKERELVAAITSSGARTYYADSVKGRFTISRDNAKNTVYLQMNSLKPEDTAVYYCNAVSPYYGIEFEYWGLGTQVTVSS | high polyreactivity
QVQLVESGGGLVQAGGSLRLSCAASGFIFSYNAMRWYRQAPGKERELTYADSVKGRFTISRDNAKNTVYLQMNSLKPEDTAVYFCAAGEYGRQYDGDYWGQATQVTVSS | low polyreactivity
QVQLVEAGGGLVQAGGTLRLSCDPSGLIFGLYAMGWYRHAPGKERELVAAISESGGGITYYADSVKGRFTISRDNAKNTVYLQMYSLKPEDTAVYYCNADRYVWAGFDFSTYDYWGQGTLVTVSS | low polyreactivity
QVHLVESGGGLVQAGGSLRLRCAASGLTSTNNAMGWYRQAPGKERELVAAITSGSTTNYADSVKGRFTISRDNAKNTVYLQMNSLNPEDTAVYYCAAQYGVWWRGYYYPEYDYWGEGTQVTVSS | low polyreactivity
QVQLVESGGGLVQAGGSLRLSCAASGRIFDRYAMGWYRQAPGKERELVAAISDRGGSTYYADSVKGRFTISRDNAKNTVYLQMNSLKPEDTAVFYCAKGPSGVRTYREYDSWGQGTQVTVSS | low polyreactivity
QVQIVESGGGLVQAGGSLRLSCAASGRIFVPYVMGWYRQAPGKERELVASISDSDTSTYYADSVKGRFTISRDNAKNTVYLQMNSLKPEDSAVYYCAAGVLRRATELYYWGQGTQVTVSS | low polyreactivity
QFQLVESGGGLVQARGSLRLSCAASGSIFDLNAMGWYRPAPGKERELVAAISSGGGTYYADSVKGRFTISRDNAKNTVYFQMYSLKPDDSAVYYCAAGKSSPRRIFEYWGQGTEVTVSS | high polyreactivity
QVQLEESGGGLVQAGGSLRLSCAASGSTFKYYAMGWYRQAPGKERELVAAISWSGGSTYYADSVKGRFTISRDNAKNTVYLQMNRLKPEDTAVYYCNKLIYDEDEYWGQGTQVTVSS | high polyreactivity
QVQLVESGGGLGQAGGSLRLSCAASGRTFYYNAMGWYRQAPGKERELVAAITRSGGRTYYADSVKGRFTISRDTAKNTVYLQMNSLKPEDTAVYYCAARWSSYYSSMDYWGQGSQVTVSS | high polyreactivity
QDQLVESGGGLVQAGGSIRLSCAASGGIFESYAMGWYRQAPGKEREMVASISSGGSTYYADSVKGRFTISRDNAKNTVYLQMNSLKPEDTAVYYCNKDYRSVYKGRGFDYWGQGTQVTVSS | low polyreactivity

Source: the nanobody polyreactivity screen of Harvey et al. (2022)
